For this series the following is noted: whole UniProt chain shown.
Where [1] appears, read: Oryza sativa subsp. japonica, pH 7, Thermal, DSC, Potassium phosphate buffer, NaCl, reversible: yes.
Where [2] appears, read: Saccharolobus solfataricus (strain ATCC 35092 / DSM 1617 / JCM 11322 / P2), pH 7, Thermal, DSC, Unknown, reversible: yes.
[3] abbreviates: Saccharomyces cerevisiae (strain ATCC 204508 / S288c), pH 6, Thermal, Absorbance, Sodium phosphate 100 mM, reversible: yes.
Setting [4] is: Pectobacterium carotovorum, pH 7.4, Thermal, DSC, CGH-10, reversible: no.
Where [5] appears, read: Paracoccus pantotrophus, pH 7, 25 °C, Urea, CD, Sodium phosphate 20 mM, Na2SO4 0.5 M, reversible: yes.
[6] abbreviates: Mus musculus, pH 7.2, 25 °C, Urea, Fluorescence, Sodium phosphate 20 mM, Sodium chloride 100 mM, reversible: Yes.
The mark [7] stands for this setting: Locusta migratoria, pH 3, 20 °C, Thermal, NMR, Unknown.

“And” between values parts separate entries of the source, which are not always exact repeats. Identical values can stand only once.

B1: Protein CutA 1, chloroplastic wild type, Q109R6 (protein)
chain: MPLLPSPLGSLSAAATAAPRRAAAAAGLSPLLLRRRAPIAGALLFLSLGAFAGVRSLSSSASARMESTSTTVPSIVVYVTVPNKEAGKRLAGSIISEKLAACVNIVPGIESVYWWEGKVQTDAEELLIIKTRESLLDALTEHVKANHEYDVPEVIALPIKGGNLKYLEWLKNSTRES
B1: under setting [1], the Tm is 97.3 °C, the “unfolding enthalpy (calorimetric)” value amounted to 347 kcal/mol and the unfolding free energy amounted to 0.79 kcal/mol. For the same protein, under “Oryza sativa subsp. japonica, pH 8, 37 °C, GdnHCl, CD, Tris-HCl buffer, NaCl, transition: 2, reversible: yes”, the “denaturant midpoint (higher = more stable)” value was found to be 2.3 M.

B2: DNA-binding protein 7d wild type, P39476 (protein)
chain: MATVKFKYKGEEKEVDISKIKKVWRVGKMISFTYDEGGGKTGRGAVSEKDAPKELLQMLEKQKK
As for B2, the Tm (Saccharolobus solfataricus (strain ATCC 35092 / DSM 1617 / JCM 11322 / P2), pH 4.5, Thermal, NMR, Unknown) was 60.9 °C. Under “Saccharolobus solfataricus (strain ATCC 35092 / DSM 1617 / JCM 11322 / P2), pH 6.1, 25 °C, GdnHCl, Fluorescence, MES 50 mM, NaCl 100 mM”, the unfolding free energy came out at 5.93 kcal/mol. For the same protein, under setting [2], the Tm stood at 99 °C, the “heat capacity change of unfolding” value was 0.75 kcal/mol/K and the “unfolding enthalpy (calorimetric)” value was 65 kcal/mol.

B3: D-amino-acid oxidase wild type, P80324 (protein)
chain: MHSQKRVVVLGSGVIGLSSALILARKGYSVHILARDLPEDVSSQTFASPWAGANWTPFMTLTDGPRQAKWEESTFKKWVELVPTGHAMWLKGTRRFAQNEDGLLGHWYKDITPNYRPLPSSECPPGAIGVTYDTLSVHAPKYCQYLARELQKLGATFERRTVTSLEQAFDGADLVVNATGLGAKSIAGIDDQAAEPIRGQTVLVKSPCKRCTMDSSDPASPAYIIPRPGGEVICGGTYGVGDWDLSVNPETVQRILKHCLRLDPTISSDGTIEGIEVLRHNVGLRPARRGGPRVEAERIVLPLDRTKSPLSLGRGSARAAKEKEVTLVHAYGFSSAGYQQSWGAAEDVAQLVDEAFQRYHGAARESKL
As to B3, the Tm was 50.2 °C and 48 °C (Rhodotorula toruloides, pH 7.5, Thermal, CD, Potassium phosphate 50 mM, reversible: No); 56.9 °C and 55.9 °C (Rhodotorula toruloides, pH 7.5, Thermal, DSC, Potassium phosphate 50 mM, reversible: No); 39 °C and 39.7 °C (Rhodotorula toruloides, pH 7.5, Thermal, Fluorescence, Potassium phosphate 50 mM, NH4SCN 0.5 M, reversible: No).

B4: Holocytochrome-c synthase wild type, P06182 (protein)
chain: MGWFWADQKTTGKDIGGAAVSSMSGCPVMHESSSSSPPSSECPVMQGDNDRINPLNNMPELAASKQPGQKMDLPVDRTISSIPKSPDSNEFWEYPSPQQMYNAMVRKGKIGGSGEVAEDAVESMVQVHNFLNEGCWQEVLEWEKPHTDESHVQPKLLKFMGKPGVLSPRARWMHLCGLLFPSHFSQELPFDRHDWIVLRGERKAEQQPPTFKEVRYVLDFYGGPDDENGMPTFHVDVRPALDSLDNAKDRMTRFLDRMISGPSSSSSAP
For the protein B4, under setting [3], the Tm was 46.5 °C, the “heat capacity change of unfolding” value worked out at 2 kcal/mol/K and the “unfolding enthalpy (van 't Hoff)” value was 79 kcal/mol.

B5: Pectate lyase wild type, Q47471 (protein)
chain: MFKYLTPIFLCTAAFSFQAQADDTMLMLLKKDNATYLSWSTDAGNVVRQDVYRSTSNNQAGSEKIAELNSTDRTFTDLTANPKSDYWYWVDTVSSNNNVQKSNAAQTAPAPLRAAPLKAASSECKAGAVIKDKTVDCGGITLGLSCTGDSDKQPPVITLENATIKNLRISEKGGSDGIHCKSGNCRIENVIWEDVCEDAATNLGKTMTIVGGVAHNTTNGPGGKPDKVLQQNAKNSHTIVQGNFTLTGQHGKLWRSCGDCTNNGGPRNLTIISATVNGTIDSIAGVNRNFGDVAEIRDLRIKNYKAGNPKICEEFKGIEKGKGKTEKYGEFWDSKNCKVSRSNVKAL
B5: where the note is “Pectobacterium carotovorum, pH 7.4, 25 °C, GdnHCl, DSC, CGH-10, reversible: no”, the unfolding free energy was 8.7 kcal/mol. Under setting [4], the Tm amounted to 81.1 °C and the “unfolding enthalpy (calorimetric)” value was 102 kcal/mol.

B6: Pseudoazurin wild type, P80401 (protein)
chain: MFHHSLAAAAAALLALAAPGFAATHEVHMLNKGESGAMVFEPAFVRAEPGDVINFVPTDKSHNVEAIKEILPEGVESFKSKINESYTLTVTEPGLYGVKCTPHFGMGMVGLVQVGDAPENLDAAKTAKMPKKARERMDAELAQVN
As to B6, under setting [5], the denaturant m value worked out at 1.87 kcal/mol/M and the unfolding free energy stood at 6.88 kcal/mol.

B7: Adapter molecule crk wild type, Q64010 (protein)
chain: MAGNFDSEERSSWYWGRLSRQEAVALLQGQRHGVFLVRDSSTSPGDYVLSVSENSRVSHYIINSSGPRPPVPPSPAQPPPGVSPSRLRIGDQEFDSLPALLEFYKIHYLDTTTLIEPVARSRQGSGVILRQEEAEYVRALFDFNGNDEEDLPFKKGDILRIRDKPEEQWWNAEDSEGKRGMIPVPYVEKYRPASASVSALIGGNQEGSHPQPLGGPEPGPYAQPSVNTPLPNLQNGPIYARVIQKRVPNAYDKTALALEVGELVKVTKINVSGQWEGECNGKRGHFPFTHVRLLDQQNPDEDFS
B7: under setting [6], the denaturant m value was 0.66 kcal/mol/M and the unfolding free energy worked out at 3.33 kcal/mol.

B8: Granulocyte-macrophage colony-stimulating factor wild type, P01587 (protein)
chain: MWLQNLLFLGIVVYSLSAPTRSPITVTRPWKHVEAIKEALNLLDDMPVTLNEEVEVVSNEFSFKKLTCVQTRLKIFEQGLRGNFTKLKGALNMTASYYQTYCPPTPETDCETQVTTYADFIDSLKTFLTDIPFECKKPGQK
For the protein B8, the unfolding free energy (Mus musculus, pH 9, 4 °C, Urea, CD, Tris-glycine 50 mM, reversible: yes) is 5.78 kcal/mol.

B9: Protease inhibitors wild type, P80060 (protein)
chain: MKFALALCAAVLLVVLVQAEEKCTPGQVKQQDCNTCTCTPTGVWGCTRKGCQPAKREISCEPGKTFKDKCNTCRCGADGKSAACTLKACPNQ
On to B9, for which, under setting [7], the “unfolding enthalpy (van 't Hoff)” value stood at 19.3 kcal/mol and the unfolding free energy is 1.1 kcal/mol.
